Data set [1] addresses TbEAP3ΔC2 (residues 1 to 144) (Trypanosoma brucei). The data set can be described thus: SEC-MALS; under reducing condition (10 mM DTT); data not shown.
The target is the same in data set [2]. Nature of the data set: SEC-MALS; HPLC (Shimadzu), Shodex KW-804 or KW-803 column, proteins at 5 mg/mL in 50 mM Tris-HCl pH 7.5, 500 mM NaCl, 5% glycerol, 0.5 mL/min; miniDAWN TREOS.
The target of data set [3] is TbRRP6ΔC (residues 20 to 540) (Trypanosoma brucei) (UniProt Q95Z10). Described as above.
For a further data set, the target named is T1, TbEAP3ΔC2 (Trypanosoma brucei, UniProt Q582G1 1-144).
T1 sequence: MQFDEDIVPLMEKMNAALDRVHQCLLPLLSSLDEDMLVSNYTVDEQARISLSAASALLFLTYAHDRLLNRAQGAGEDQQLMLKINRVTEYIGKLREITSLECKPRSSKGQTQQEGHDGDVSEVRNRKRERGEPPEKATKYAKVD
The data set can be described thus: EMSA; 5 mM MnCl2; protein 5-50 uM; 10 mM Tris-HCl pH 8.0, 10 mM DTT, 25 mM KCl, 5 mM MnCl2; 50 nM oligonucleotide; 5, 10 or 50 uM protein; 30 min on ice; native 6% gel, 0.25x TBE, 0.5% glycerol. The following applies: protein: recombinant, tags: pET21a, chain copies: 2.

The target in another data set is T2, TbEAP3ΔC1 (Trypanosoma brucei, UniProt Q582G1 1-183).
T2 sequence: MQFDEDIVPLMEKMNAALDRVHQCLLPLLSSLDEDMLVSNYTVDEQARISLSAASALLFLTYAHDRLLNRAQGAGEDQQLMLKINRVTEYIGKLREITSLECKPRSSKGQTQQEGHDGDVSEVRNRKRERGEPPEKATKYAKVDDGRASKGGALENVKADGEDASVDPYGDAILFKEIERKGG
The description is as above. The following applies: protein: recombinant, tags: pET21a, chain copies: 2.

Data set [4] concerns the molecule itself. Nature of the data set: SEC-MALS; HPLC (Shimadzu), Shodex KW-804 or KW-803 column, proteins at 5 mg/mL in 50 mM Tris-HCl pH 7.5, 500 mM NaCl, 5% glycerol, 0.5 mL/min; miniDAWN TREOS.
Setting [5] is: label: 5'-FAM, hairpin with 20 nt 3' extension.
Where [6] appears, read: label: 5'-FAM on strand 1, blunt.

This is an account of results in paper PMC3928423, “RRP6 from Trypanosoma brucei: Crystal Structure of the Catalytic Domain, Association with EAP3 and Activity towards Structured and Non-Structured RNA Substrates” (PLoS ONE, 2014).

Numbering of substitutions follows the chain as printed.

As for “TbEAP3ΔC2 (residues 1 to 144) (domain or fragment)”, the stoichiometry N came out at 2 in data set [1], 2 in data set [2] and 1 in data set [3].
In the case of AUUUAUUUAGGGCGGGCGCAAGCCCGCCCUAUUUAUUAUUUAUUAUUUA (structured_RNA) [GNRA20], the binding result with TbEAP3ΔC2 (setting [5]) and with TbEAP3ΔC1 (setting [5]) was “no binding” throughout.

B1: dsDNA (dsDNA)
DNA 1: CCAAAAAAAAAAAAACCACTCACTCACTCA
DNA 2: TGAGTGAGTGAGTGGTTTTTTTTTTTTTGG
For B1, the binding result with TbEAP3ΔC2 (setting [6]) and in the data set with TbEAP3ΔC1 (setting [6]) was “no binding” throughout.
For CCAAAAAAAAAAAAACCACUCACUCACUCA (ssRNA) [ssRNA], the binding result is “no binding” with TbEAP3ΔC2 (label: 5'-FAM, single strand) and “no binding” with TbEAP3ΔC1 (label: 5'-FAM, single strand).

B2: dsRNA (dsRNA)
RNA 1: B1 DNA 1 with T20U, T24U, T28U
RNA 2: UGAGUGAGUGAGUGGUUUUUUUUUUUUUGG
B2: the binding result with TbEAP3ΔC2 (setting [6]) and in the data set with TbEAP3ΔC1 (setting [6]) was “no binding” each time.
Take CCAAAAAAAAAAAAACCACTCACTCACTCA (ssDNA) [ssDNA]: the binding result with TbEAP3ΔC2 (label: 5'-FAM, single strand) is “no binding”; in the data set with TbEAP3ΔC1 (label: 5'-FAM, single strand) it was “no binding”.

B3: TbEAP3ΔC1 (residues 1 to 183) (domain or fragment, Trypanosoma brucei, UniProt Q582G1 1-183, looked up)
chain: T2 sequence
notes: TbEAP3, Trypanosoma brucei, gene Tb927.7.5460, residues 1-183 (C-terminal truncation); one copy in the heterodimer with TbRRP6ΔC; source: E. coli C3022 (pET21a), purified (His-Trap, Superdex 200, mono Q); also co-expressed with TbRRP6ΔC and co-purified
Consider B3, for which the results for the stoichiometry N in data set [3] and in data set [4] were 1 and 2, respectively.
